In the data set the test system is K562 CRISPRi cells. As to the kind of experiment: Constant region variant library pooled growth screen, K562. The class given is cell-based, human. The note with it: sgRNA constant region variants; activity relative to the original, un-modified constant region cr995. From the text: We calculated relative activities for each targeting sequence:constant region pair by normalizing its phenotype to that of the targeting sequence paired with the unmodified constant region, identifying 409 constant region variants that on average conferred intermediate activity (0.1-0.9, FIG. 5B). Ten variants selected for individual evaluation also mediated intermediate levels of mRNA knockdown (FIG. 6B). Mapping the activities of constant region variants with single base substitutions onto the structure recapitulated known relationships between constant region structure and function (FIG. 5C).
The sequences in the library of modified constant regions were derived from the sgRNA (F+E) optimized sequence (23) modified to include a BlpI site (15). Each modified constant region was paired with 36 sgRNA targeting sequences (3 sgRNAs targeting each of 10 essential genes and six non-targeting negative control sgRNAs). The cloning strategy (described below) allowed the mutation of most positions in the sgRNA constant region. A variety of modifications were made, including substitutions of all single bases not in the BlpI restriction site (which is used for cloning), double substitutions including all substitutions at base-paired position pairs not before or in the BlpI site, and a variety of triple, quadruple, and sextuple substitutions, including base-pair-preserving substitutions at adjacent base-pairs.
The library was ordered and cloned in two parts. One part consisted of ˜100 modifications to the eight bases upstream of the BlpI restriction site. Constant region variants with mutations in this section were paired with each of the 36 targeting sequences, ordered as a pooled oligonucleotide library (Twist Biosciences), and cloned into pCRISPRia-v2 as described above. The second part consisted of ˜900 modifications to the 71 bases downstream of the BlpI restriction site. This part was cloned in two steps. First, all 36 targeting sequences were individually cloned into pCRISPRia-v2 as described above. The vectors were then pooled at an equimolar ratio and digested with BlpI (NEB) and XhoI (NEB). The modified constant region variants were ordered as a pooled oligonucleotide library (Twist Biosciences), PCR amplified with Phusion polymerase (NEB), digested with BlpI (NEB) and XhoI (NEB), and ligated into the digested vector pool, in a manner identical to previously published protocols and as described above, except for the different restriction enzymes.
Screens with the compact mismatched sgRNA library and the constant region library were conducted largely as described above, with smaller modifications during the screening procedure and an updated sequencing library preparation protocol. Briefly, the libraries were transduced in duplicate into K562 CRISPRi (both libraries) or HeLa CRISPRi cells (compact mismatched sgRNA library) as described above. K562 replicates were maintained separately in 0.15 to 0.3 L of RPMI-1640 in 0.3 L spinner flasks for the course of the screen. HeLa replicates were maintained in sets of ten 15-cm plates. Cells were selected with puromycin as described above (K562: 1 day of 0.75 μg/mL and 1 day of 0.85 μg/mL; HeLa: 2 days of 0.8 μg/mL and 1 day of 1 μg/mL). The remainder of the screen was carried out at >1000× library coverage (K562 compact mismatched sgRNA library: >2000×; HeLa compact mismatched sgRNA library: >1000×; K562 constant region library: >2000×). Multiple samples were harvested after 4 to 8 days of growth. For the drug screen, 10 μM lovastatin (ApexBio) or an equivalent volume of DMSO (vehicle) was added to flasks at t=0, and 3 days later cells were pelleted and re-suspended in fresh medium. Lovastatin (12 μM) or DMSO was again added after 5 and 9 days of growth, with media exchanges 3 days after drug supplementation. Multiple samples were harvested after 4 to 8 days for the K562 and HeLa growth screens. […]

In US20220259593A1, “CONTROL OF MAMMALIAN GENE DOSAGE USING CRISPR” (The Regents of the University of California, priority 2019, published 2022) one finds Mean relative activity data, which are given here for 30 molecules.

Residue numbers refer to the chain shown, from its start.

B1: cr694 (nucleic acid)
guide: GTTTAAGAGCTAAGCTGGAAACAGCATAGCAAGTTTAAATAAGGCTAGTCCGGTATCAACTTGTAAAAGTGGCACCGAGTCGGTGCT
modifications: listed as DNA, chemistry not fully specified
B1 had a Mean relative activity of 0.8963.

B2: cr991 (nucleic acid)
guide: B1 guide with G53A, T64A, A65C
modifications: listed as DNA, chemistry not fully specified
Take B2: the Mean relative activity is 0.8694.

B3: cr806 (nucleic acid)
guide: B1 guide with A42G, G53T, T64A
modifications: listed as DNA, chemistry not fully specified
Regarding B3, the Mean relative activity stood at 0.8861.

B4: cr705 (nucleic acid)
guide: B1 guide with G53T, T64A, C76G, G82C
modifications: listed as DNA, chemistry not fully specified
In the case of B4, the Mean relative activity was 0.8901.

B5: cr869 (nucleic acid)
guide: B1 guide with G53T, T64A, T70A
modifications: listed as DNA, chemistry not fully specified
Take B5: the Mean relative activity turned out to be 0.8861.

B6: cr488 (nucleic acid)
guide: B1 guide with G53T, T64A, C73G, G85C
modifications: listed as DNA, chemistry not fully specified
The molecule B6 registered a Mean relative activity of 1.06.

B7: cr643 (nucleic acid)
guide: B1 guide with G44A, C50T, G53T, A59G, T64A, T70C, C75T, G83A
modifications: listed as DNA, chemistry not fully specified
For B7, the Mean relative activity came to 0.865.

B8: cr236 (nucleic acid)
guide: B1 guide with G24A, G53T, T64A
modifications: listed as DNA, chemistry not fully specified
In the case of B8, the Mean relative activity worked out at 0.8745.

B9: cr153 (nucleic acid)
guide: B1 guide with G53T, C60A, T61A, T64A, A68T, G69T
modifications: listed as DNA, chemistry not fully specified
B9 gave a Mean relative activity of 0.8735.

B10: cr206 (nucleic acid)
guide: B1 guide with G53T, T61C, T64A, G79C
modifications: listed as DNA, chemistry not fully specified
The molecule B10 gave a Mean relative activity of 0.8946.

B11: cr105 (nucleic acid)
guide: B1 guide with T46C, G53T, T64A, A65C
modifications: listed as DNA, chemistry not fully specified
Consider B11, for which the Mean relative activity is given as 0.8672.

B12: cr358 (nucleic acid)
guide: B1 guide with C45T, G48A, G53T, C60G, T64A, G69C, C76T, G82A
modifications: listed as DNA, chemistry not fully specified
In turn, B12 had a Mean relative activity of 0.886.

B13: cr692 (nucleic acid)
guide: B1 guide with G17A, G53T, T64A
modifications: listed as DNA, chemistry not fully specified
B13: the Mean relative activity was 0.8665.

B14: cr184 (nucleic acid)
guide: B1 guide with T64G
modifications: listed as DNA, chemistry not fully specified
As for B14, the Mean relative activity was found to be 0.8653.

B15: cr768 (nucleic acid)
guide: B1 guide with G53T, T64A, T80C
modifications: listed as DNA, chemistry not fully specified
For the molecule B15, the Mean relative activity worked out at 0.8788.

B16: cr260 (nucleic acid)
guide: B1 guide with G53A, T64A
modifications: listed as DNA, chemistry not fully specified
On to B16, for which the Mean relative activity came to 0.874.

B17: cr396 (nucleic acid)
guide: B1 guide with G53T, T64A, C75A, G77A, C81T, G83T
modifications: listed as DNA, chemistry not fully specified
As for B17, the Mean relative activity is 0.8826.

B18: cr013 (nucleic acid)
guide: B1 guide with A5G, G53T, T64A
modifications: listed as DNA, chemistry not fully specified
In turn, B18 returned a Mean relative activity of 0.8907.

B19: cr123 (nucleic acid)
guide: B1 guide with G53T, T61G, T64A
modifications: listed as DNA, chemistry not fully specified
For the molecule B19, the Mean relative activity was found to be 0.8871.

B20: cr520 (nucleic acid)
guide: B1 guide with G53A, T64C
modifications: listed as DNA, chemistry not fully specified
On to B20, for which the Mean relative activity came to 0.8874.

B21: cr414 (nucleic acid)
guide: B1 guide with G53T, T64A, A74T
modifications: listed as DNA, chemistry not fully specified
Consider B21, for which the Mean relative activity worked out at 0.8852.

B22: cr781 (nucleic acid)
guide: B1 guide with G53T, T64A, G85C
modifications: listed as DNA, chemistry not fully specified
In turn, B22 came in with a Mean relative activity of 0.8813.

B23: cr759 (nucleic acid)
guide: B1 guide with A47C, G53T, T64A, A65G
modifications: listed as DNA, chemistry not fully specified
B23: the Mean relative activity is listed as 0.8842.

B24: cr729 (nucleic acid)
guide: B1 guide with C22T, G53T, T64A
modifications: listed as DNA, chemistry not fully specified
B24 returned a Mean relative activity of 0.8793.

B25: cr216 (nucleic acid)
guide: B1 guide with G44A, C50T, G53T, T64A
modifications: listed as DNA, chemistry not fully specified
The molecule B25 gave a Mean relative activity of 0.8652.

B26: cr286 (nucleic acid)
guide: B1 guide with T46G, G53T, T64A, A65G
modifications: listed as DNA, chemistry not fully specified
In the case of B26, the Mean relative activity came out at 0.885.

B27: cr749 (nucleic acid)
guide: B1 guide with A31G, G53T, T54C, T64A, A78C
modifications: listed as DNA, chemistry not fully specified
On to B27, for which the Mean relative activity was 0.8857.

B28: cr617 (nucleic acid)
guide: B1 guide with C45T, G48A, G53T, A59G, T61G, T64A, A68C, T70C
modifications: listed as DNA, chemistry not fully specified
Turning to B28, the Mean relative activity stood at 1.058.

B29: cr909 (nucleic acid)
guide: B1 guide with G29T, G53T, T54G
modifications: listed as DNA, chemistry not fully specified
With B29, the Mean relative activity came to 0.8864.

B30: cr984 (nucleic acid)
guide: B1 guide with G53T, T64A, C86G
modifications: listed as DNA, chemistry not fully specified
B30 yielded a Mean relative activity of 0.8858.
